Source: publication PMC5696618 (Journal of biomolecular screening, 2016)
Like-named read-outs stand apart in the source and are kept apart here.

B1: mouse EAG1 PAS protein (residues 1-137) (domain or fragment, UniProt Q60603 1-137, looked up)
chain: MTMAGGRRGLVAPQNTFLENIVRRSNDTNFVLGNAQIVDWPIVYSNDGFCKLSGYHRAEVMQKSSACSFMYGELTDKDTVEKVRQTFENYEMNSFEILMYKKNRTPVWFFVKIAPIRNEQDKVVLFLCTFSDITAFK
B3: mouse CNBh domain (residues 552-724) (domain or fragment, UniProt Q60603 552-724, looked up)
chain: TEKVLQICPKDMRADICVHLNRKVFKEHPAFRLASDGCLRALAMEFQTVHCAPGDLIYHAGESVDSLCFVVSGSLEVIQDDEVVAILGKGDVFGDVFWKEATLAQSCANVRALTYCDLHVIKRDALQKVLEFYTAFSHSFSRNLILTYNLRKRIVFRKISDVKREEEERMKRK

Key:
[1] = biological target: hERG PAS domain (Homo sapiens, UniProt Q12809); experiment: Thermal shift assay; assay type: binding; conditions: for Shift in Tm of hERG PAS protein: dose response, compound solubility issues limited this study
[2] = biological target: B3; experiment: ITC
[3] = biological target: B3; experiment: ITC; remark: listed apart in the source
[4] = biological target: B3; experiment: ITC; remark: listed apart in the source
[5] = biological target: B3; experiment: fluorescence polarisation
[6] = biological target: B3; experiment: fluorescence polarisation; remark: listed apart in the source
[7] = biological target: B3; experiment: fluorescence polarisation; remark: listed apart in the source
[8] = biological target: B3; experiment: fluorescence polarisation; remark: listed apart in the source
[9] = biological target: B3; experiment: fluorescence polarisation; remark: listed apart in the source
[10] = biological target: B1; experiment: ITC
[11] = biological target: B1; experiment: ITC; remark: listed apart in the source
[12] = biological target: B1; experiment: ITC; remark: listed apart in the source

Chain of hERG PAS domain (Q12809 1-135): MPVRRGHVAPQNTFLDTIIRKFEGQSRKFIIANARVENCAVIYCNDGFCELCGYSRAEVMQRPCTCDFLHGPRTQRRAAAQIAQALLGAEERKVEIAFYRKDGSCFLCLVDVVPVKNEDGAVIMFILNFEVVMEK

In the case of Oc1ccc(C(c2ccc(O)cc2)(C(F)(F)F)C(F)(F)F)cc1 [Bisphenol AF], the “Decrease in Tm of hERG PAS protein” value ([1]; human, 200 µM, pH 7.5) is reported as “at least 4.5 °C”.

CC(C)(c1ccc(O)cc1)c1ccc(O)cc1 [Bisphenol A] was tested, and the “Shift in Tm of hERG PAS protein” value [1] was “No shift”.

Oc1ccc(Cc2ccc(O)cc2)cc1 [Bisphenol F] was tested, and the “Shift in Tm of hERG PAS protein” value [1] was “No shift”.

For CC(C)(C)c1cc(S)cc(C(C)(C)C)c1O [ST057196], the “Decrease in Tm of hERG PAS protein” value ([1]; on addition of 50 µM of compound) was “more than 18 °C”.

With B1 the Kd [2] was 3300 nM, the Kd [3] was 1100 nM and the Kd [4] was 2100 ± 800 nM.

B2: fluorescein-labeled mEAG1 PAS (F-PAS) (domain or fragment, mouse, UniProt Q60603 1-137, looked up)
chain: MTMAGGRRGLVAPQNTFLENIVRRSNDTNFVLGNAQIVDWPIVYSNDGFCKLSGYHRAEVMQKSSACSFMYGELTDKDTVEKVRQTFENYEMNSFEILMYKKNRTPVWFFVKIAPIRNEQDKVVLFLCTFSDITAFK
modifications: fluorescein (fluorescein 5-maleimide) on accessible cysteine residues; fluorescein to protein molar ratio typically 3 or 4
B2 gave a Kd [5] of 3600 ± 1200 nM, a Kd [6] of 2400 ± 670 nM and a Kd [7] of 1800 ± 560 nM. The Kd [8] was 2300 ± 930 nM and the Kd [9] was 3100 ± 1100 nM.

With B3 the “stoichiometry N” value [10] was 0.77, the “stoichiometry N” value [11] was 1.2 and the “stoichiometry N” value [12] was 1.3 ± 0.27.
